Experimental data: patent US20020187934A1

Biological target: purified HLA-DR4Dw4 (human)
Experiment: Test A: competition with biotin-FHA307-320 for purified HLA-DR4Dw4, ELISA read-out

## Phv-Arg-Ala-IIb-Thr-Ala-Ala-Ala-Papa-NH2 (SEQ ID NO:1) (peptide)
  concentration showing significant binding: < 0.1 µM
